The values that follow are results of earlier work, collected in publication PMC5031454.

The target of the series is Dscam1 Ig1-4 (Drosophila melanogaster) (UniProt Q0E9H9).
UniProt Q0E9H9, sequence (Q0E9H9 39-421): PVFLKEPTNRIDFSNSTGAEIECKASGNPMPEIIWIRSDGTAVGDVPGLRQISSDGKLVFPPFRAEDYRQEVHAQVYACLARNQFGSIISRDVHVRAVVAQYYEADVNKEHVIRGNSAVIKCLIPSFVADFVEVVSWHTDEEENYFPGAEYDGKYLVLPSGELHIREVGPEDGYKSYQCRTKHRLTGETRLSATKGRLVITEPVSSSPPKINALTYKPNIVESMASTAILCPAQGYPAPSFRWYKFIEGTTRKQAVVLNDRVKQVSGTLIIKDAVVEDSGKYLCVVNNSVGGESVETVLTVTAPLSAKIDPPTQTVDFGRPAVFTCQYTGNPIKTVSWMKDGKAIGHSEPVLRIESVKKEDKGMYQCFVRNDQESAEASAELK

Turning to “Slit-N N-terminal fragment (from UniProt P24014)”, the Kd is 22 nM.

A word on the Kd: it is the free concentration of one partner at which half of the binding sites on the other are occupied at equilibrium, for simple one-to-one binding.
